# Target: the molecule itself
# Experiment: size exclusion chromatography
protein,measurement,value
eIF2Bα (protein) MDDKELIEYFKSQMKEDPDMASAVAAIRTLLEFLKRDKGETIQGLRANLTSAIETLCGVDSSVAVSSGGELFLRFISLASLEYSDYSKCKKIMIERGELFLRRISLSRNKIADLCHTFIKDGATILTHAYSRVVLRVLEAAVAAKKRFSVYVTESQPDLSGKKMAKALCHLNVPVTVVLDAAVGYIMEKADLVIVGAEGVVENGGIINKIGTNQMAVCAKAQNKPFYVVAESFKFVRLFPLNQQDVPDKFKYKADTLKVAQTGQDLKEEHPWVDYTAPSLITLLFTDLGVLTPSAVSDELIKLYL,Kd,< 1 nM
